From patent US20140369940A1 (Biogen, published 2014) come the findings set out here.

For assay [1], the target named is T1, synthetic biotinylated α-synuclein peptide 5-30 (human, biotinylated (position not given)).
T1 construct: also called α-synuclein 5-30
Briefly: in-solution ELISA, antibody coated at 2 µg/ml, biotinylated peptide. In general terms: In an ELISA, binding on a coated surface is turned into a signal by an enzyme label.

For assay [2], the target named is T2, recombinant human β-synuclein (wt) (human, UniProt Q16143 1-134).
T2 construct: also called wt β-synuclein
T2 sequence (Q16143 whole entry): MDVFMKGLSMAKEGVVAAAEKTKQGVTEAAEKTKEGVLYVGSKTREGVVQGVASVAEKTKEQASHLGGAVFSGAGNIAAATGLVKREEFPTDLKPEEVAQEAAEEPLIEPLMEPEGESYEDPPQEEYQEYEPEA
In words: direct ELISA.

Assay [3] has as its target T3, human α-synuclein pepscan peptide A02 (residues 5-20) (human, also: C-terminally coupled via flexible linker to cellulose membrane).
T3 construct: Printed as residues 5-20, although a 15-mer with 11 residues overlap to A01 would be 5-19
T3 peptide: MKGLSKAKEGVVAAAE
In words: pepscan, immunoblotting. For orientation: A western blot detects proteins with antibodies after separation by electrophoresis.
Protocol: A membrane that comprises a total of 33 peptides was rinsed in methanol and then blocked with Rotiblock (Roth, Karlsruhe, Germany). The membrane was incubated with indicated antibodies diluted in blocking solution and then with horse radish peroxidase (HRP)-labeled secondary antibody for 1 hr. Between incubations the membrane was washed 3× with PBS-T for 5 min. The membrane was then developed using ECL plus Western Blotting Detection Reagents (GE Healthcare).
Adjacent peptides share an overlap of 11 residues and peptides were C-terminally spotted to a cellulose support membrane.

Assay [4] addresses recombinant α-synuclein truncation aa 1-60 (human, UniProt P37840 1-60). In words: direct ELISA.

Ends that are not written are not given here.

B1: recombinant human monoclonal antibody NI-202.12F4 (antibody, V domains shown)
VH: EVQLVQSGGGLVEPGGSLRLSCAVSGFDFEKAWMSWVRQAPGQGLQWVARIKSTADGGTTSYAAPVEGRFIISRDDSRNMLYLQMNSLKTEDTAVYYCTSAHWGQGTLVTVSS
VL: QSVLTQPPSVSVSPGQTARITCSGEALPMQFAHWYQQRPGKAPVIVVYKDSERPSGVPERFSGSSSGTTATLTITGVQAEDEADYYCQSPDSTNTYEVFGGGTKLTVL
notes: Lambda light chain; HEK293 or CHO conditioned medium
For the molecule B1, the binding result in assay [1], in assay [2] and in assay [3] was “no binding” throughout.

B2: recombinant human monoclonal antibody NI-202.21D11 (antibody, V domains shown)
VH: EVQLVESGAEVKKPGASVKVSCKASGYTFTNYAMHWVRQAPGQRLEWMGWINAGNGKRKYSQKFQDRVTINRDTSASTIYMELSSLGSEDTAVYYCAREEDHAGSGSYLSMDVWGQGTLVTVSS
VL: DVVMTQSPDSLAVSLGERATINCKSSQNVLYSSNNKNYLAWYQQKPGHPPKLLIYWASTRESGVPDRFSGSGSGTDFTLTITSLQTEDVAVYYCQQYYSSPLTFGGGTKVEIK
notes: Expressed recombinantly in HEK293 or CHO cells as a complete antibody (methods: human IgG1 or chimeric mouse IgG2a constant regions); conditioned medium used directly unless otherwise stated
B2: the binding result in assay [4] is “no binding (tested: coated at 2 ug/ml)”.
